Publication PMC6017339, “A Turn-on Fluorescence Sensor for Heparin Detection Based on a Release of Taiwan Cobra Cardiotoxin from a DNA Aptamer or Adenosine-Based Molecular Beacon”

Biological target: T1, cardiotoxin 3 (CTX3) (Naja naja atra (Taiwan cobra), UniProt P60301 22-81)
T1 sequence: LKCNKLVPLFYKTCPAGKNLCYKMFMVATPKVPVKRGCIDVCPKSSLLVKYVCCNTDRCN
Experiment: fluorescence quenching titration; 20 nM aptamer; >80% quenching, saturated at 400 nM CTX3; 10 mM HEPES pH 8.0, 30 C, 5 min incubation, no added salt stated; 20 nM aptamer or 10 nM MB
Conditions: protein: native; label: 5'-FAM; 3'-DABCYL

Binder: GCGAGGTGTTCGAGAGTTAGGGGCGACATGACCAAACGTT (ssDNA) [DNA aptamer against CTX3]
- binding result: binds
